In article PMC5384801 (mAbs, 2016):

Molecular target: trimeric HIV-1 YU-2 gp140 Env (HIV-1 YU-2 (clade B), UniProt P35961, strain)
Assay: ELISA

B1: 8C chimeric mAb (bovine V regions, human IgG1/lambda constant regions) (antibody, V domains shown)
VH: QVQLRESGPSLVKPSQTLSLTCTVSGFSLSRYDVNWVRQAPGKALEWVGVISGDGITGYNPALKSRLSITKDNSKSQLSLSVSSVTPEDTATYYCESWVCVGGRDDVCHSDWGQGLLVTVSS
VL: QAVLTQPTSVSVALGQTAKITCSGDLVDEQYTQWYQQKPGQGPVMVIYKDSERPSGISDRFSGSNSGKTATLTISGAQTEDEADYYCHSADSSHAVFGSGTTLTV
Question: Does B1 bind?
Answer: Result: no binding
